Four molecules from PMC4838364 (Nucleic Acids Research, 2016) can be followed below.

Sequences and labels used below:
B1: PCNA from Thermoplasma acidophilum (natural protein, Thermoplasma acidophilum DSM 1728, UniProt Q9HJQ0 1-246, looked up)
chain: MIRLNLSVKNLKEITDLLSTIVSEAKFRVDENGMSVTAVDPAHVAMIRLEVPKEAFVEFHTDGQEEIALDIDRLKSVIRLASSSENVGITKDGEKLKFELGTINKSISLLDPSTIVTPKIPNITSEYYAVLKKSDFERGLRAAEDISDSIRFTLSQDGFKAYSHSESEESEMILPKDLITDMSCNTTIKSSYPLEYLLKFIKAISSTDSLKLSFRDDYPLSVEFYLDQNPGAKIKGLFLLAPRMEQ
B2: Hef from Thermoplasma acidophilum, wild-type (natural protein, Thermoplasma acidophilum DSM 1728, UniProt Q9HI46 1-508, looked up)
chain: MIIQPREYQLNVFKNSIGQNTLIVMPTGLGKTIIAAMFIEKFYGEKKRSLMVAPTKPLVLQHARTIADSTGISENEIGVFTGEIDAEERELIWVTKKIFVSTPQVVFNDMRSGILDITKFDLIIFDEAHRAVGNYAYVDIAQEYLKYKKKLIIGLTASPGSSREKIDEIMANLGISKVIAKTEMDEDVRKYVKTIDVKLIKIREPDGTKEIVNMIDAVMSKLLEPVKSSNFSIGRSRKDLVATMQKVINSAKEDRSLFQLVRRITAAIRLDYLKEYIETQGIDVALHYLEEMEKSQDPGIRRAISMLSSLDEFATLRTKLMLAADGYTNPKMEKTLSIMESNVHGNARAIVFTHYRITSDLLMDYIQKNGTSLKPVRFIGQADRGSDEGLSQDQQKKIIEDFKNNVYNVLIATSIAEEGLDIPDTDFVIFYEAVPSEIRYIQRKGRTGRSRNGQVYILVFENSRDMAYYYSSIRKVSRMTQTIEDLRQESGSDEKEEKSDVQKTIFDF
B3: hsFANCM 1-17 wildtype peptide (peptide, UniProt Q8IYD8 1-17, looked up)
peptide: MSGRQRTLFQTWGSSIS

For data set [1], the target named is Flag-FANCM PIP-box mutant (L8R/W12S), full length (human) (UniProt Q8IYD8). The data set can be described thus: proximity ligation.
Sequence of Flag-FANCM PIP-box mutant (L8R/W12S), full length (human) (Q8IYD8 whole entry L8R/W12S): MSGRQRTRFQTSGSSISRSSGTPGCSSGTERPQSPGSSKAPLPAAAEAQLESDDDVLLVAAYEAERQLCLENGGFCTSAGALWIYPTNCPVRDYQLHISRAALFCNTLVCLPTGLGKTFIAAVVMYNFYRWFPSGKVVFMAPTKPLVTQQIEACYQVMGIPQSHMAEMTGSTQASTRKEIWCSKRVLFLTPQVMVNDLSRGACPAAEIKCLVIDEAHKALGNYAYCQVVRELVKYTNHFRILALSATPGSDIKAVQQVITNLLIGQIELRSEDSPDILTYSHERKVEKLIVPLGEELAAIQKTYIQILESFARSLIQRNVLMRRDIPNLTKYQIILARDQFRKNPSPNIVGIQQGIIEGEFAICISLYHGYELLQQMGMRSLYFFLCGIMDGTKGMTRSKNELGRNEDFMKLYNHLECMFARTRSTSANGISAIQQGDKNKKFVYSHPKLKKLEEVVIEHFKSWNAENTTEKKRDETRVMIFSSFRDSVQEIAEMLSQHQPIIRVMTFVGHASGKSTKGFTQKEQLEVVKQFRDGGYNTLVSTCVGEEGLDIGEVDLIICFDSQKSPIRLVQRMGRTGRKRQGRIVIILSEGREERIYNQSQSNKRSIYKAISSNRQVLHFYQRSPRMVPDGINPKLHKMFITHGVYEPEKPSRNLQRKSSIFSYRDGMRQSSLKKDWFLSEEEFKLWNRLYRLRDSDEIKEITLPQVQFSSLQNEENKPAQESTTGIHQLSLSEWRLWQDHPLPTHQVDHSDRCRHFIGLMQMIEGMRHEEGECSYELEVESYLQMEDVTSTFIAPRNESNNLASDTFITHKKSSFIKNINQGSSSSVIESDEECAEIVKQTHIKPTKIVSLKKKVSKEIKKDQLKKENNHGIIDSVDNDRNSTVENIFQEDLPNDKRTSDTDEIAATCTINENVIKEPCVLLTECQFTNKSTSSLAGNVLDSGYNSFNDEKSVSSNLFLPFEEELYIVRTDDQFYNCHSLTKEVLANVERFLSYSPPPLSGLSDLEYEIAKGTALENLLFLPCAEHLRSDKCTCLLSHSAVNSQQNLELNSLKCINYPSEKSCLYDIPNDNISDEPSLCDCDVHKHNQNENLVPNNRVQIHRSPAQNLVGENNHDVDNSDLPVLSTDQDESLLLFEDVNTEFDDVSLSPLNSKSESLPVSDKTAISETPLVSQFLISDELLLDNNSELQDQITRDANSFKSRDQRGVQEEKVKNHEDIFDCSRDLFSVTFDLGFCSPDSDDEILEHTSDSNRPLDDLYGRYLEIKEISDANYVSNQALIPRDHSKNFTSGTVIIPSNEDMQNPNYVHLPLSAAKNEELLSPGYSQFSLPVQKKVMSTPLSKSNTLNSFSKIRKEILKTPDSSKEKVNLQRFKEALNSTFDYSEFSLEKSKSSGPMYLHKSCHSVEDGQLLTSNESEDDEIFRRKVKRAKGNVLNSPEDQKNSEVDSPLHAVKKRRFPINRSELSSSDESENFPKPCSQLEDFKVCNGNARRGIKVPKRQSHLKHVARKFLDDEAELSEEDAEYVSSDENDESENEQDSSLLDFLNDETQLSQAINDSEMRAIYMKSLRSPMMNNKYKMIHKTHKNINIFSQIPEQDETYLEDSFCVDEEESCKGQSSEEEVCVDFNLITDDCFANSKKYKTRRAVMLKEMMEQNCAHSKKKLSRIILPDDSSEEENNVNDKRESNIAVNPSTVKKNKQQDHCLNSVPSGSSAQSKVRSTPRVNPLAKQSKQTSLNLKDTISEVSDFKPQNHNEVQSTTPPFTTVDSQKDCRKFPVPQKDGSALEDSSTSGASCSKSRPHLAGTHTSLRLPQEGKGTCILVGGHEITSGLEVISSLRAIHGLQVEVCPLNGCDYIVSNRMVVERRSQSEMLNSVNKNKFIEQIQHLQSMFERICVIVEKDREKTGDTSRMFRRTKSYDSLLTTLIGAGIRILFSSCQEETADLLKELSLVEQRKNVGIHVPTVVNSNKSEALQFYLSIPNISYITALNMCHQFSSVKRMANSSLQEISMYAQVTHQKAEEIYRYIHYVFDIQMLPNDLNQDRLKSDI
Data set [2] has as its target B2. The data set can be described thus: ITC. Background: Isothermal titration calorimetry measures the heat released or taken up as one component is titrated into another.
The data set “SEC” concerns the molecule itself. The data set can be described thus: SEC.
Data set [3] deals with B1. Kind of data set: SAXS.
The target of data set [4] is B1. Kind of data set: SEC.
A further data set concerns the target Human PCNA, recombinant (human, UniProt P12004 1-261). Kind of data set: ITC.

Sequence of Human PCNA, recombinant (P12004 whole entry): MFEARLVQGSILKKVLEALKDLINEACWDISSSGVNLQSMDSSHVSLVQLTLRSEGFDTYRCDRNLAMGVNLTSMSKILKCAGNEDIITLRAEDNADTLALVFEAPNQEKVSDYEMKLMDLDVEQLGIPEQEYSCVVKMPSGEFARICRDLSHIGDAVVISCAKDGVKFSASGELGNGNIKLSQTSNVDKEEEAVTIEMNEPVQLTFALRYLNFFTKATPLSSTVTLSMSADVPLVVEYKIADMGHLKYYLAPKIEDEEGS

In turn, “PCNA, endogenous (from UniProt P12004 1-261) (natural protein)” yielded a PLA signal relative to wildtype FANCM (HU-treated cells) in data set [1] of 50%.

As for B1, in data set [2], binding was characterised by a dissociation constant (Kd) of 1 µM. In addition, the “stoichiometry N” value in the data set “SEC” was found to be 3. As to B2, the results for the “stoichiometry N” value in data set [3] and in data set [4] were 3 taHef per taPCNA trimer and 3 taHef monomers per taPCNA homotrimer, respectively. Turning to B3, the Kd in the data set with Human PCNA, recombinant is 13 µM.

For orientation: Kd means the free concentration of one partner at which half of the binding sites on the other are occupied at equilibrium, for simple one-to-one binding. As a reminder, the stoichiometry N is the number of molecules, sites or subunits per partner or assembly.
